Measurements: PMC8725159, “CryoEM analysis of small plant biocatalysts at sub-2 Å resolution” (Acta Crystallographica. Section D, Structural Biology, 2022)
Values joined by “and” are separate entries in the source; they are usually repeats but may differ in a detail not shown here. Equal entries are not always repeated. Values belong to the molecule of their own block, whether it stands above or below them.

Assays:
[1] = target: borneol dehydrogenase 1 from Salvia rosmarinus (SrBDH1) (Salvia rosmarinus); assay: SEC-MALS; Superdex 200 Increase 10/300 column, 18°C, miniDAWN TREOS detector with refractive-index detector
[2] = target: borneol dehydrogenase 1 from Salvia rosmarinus (SrBDH1) (Salvia rosmarinus); assay: cryo-EM structure; single-particle cryoEM, 1 mg/ml on UltrAuFoil R1.2/1.3 grids, Titan Krios 300 kV, Falcon 3EC, D2 symmetry imposed
[3] = target: the molecule itself; assay: SEC-MALS; Superdex 200 Increase 10/300 column, 18°C, miniDAWN TREOS detector with refractive-index detector

stoichiometry N [1]: 4
stoichiometry N [2]: 4
Molecule: borneol dehydrogenase 1 from Salvia rosmarinus (SrBDH1) (enzyme)

B1: borneol dehydrogenase 2 from Salvia officinalis (SoBDH2) (enzyme)
chain: MATGAANVESPQSLPLRLLGRVALVTGGSSGIGESIVLLFRKHGAKVCIADVQDNQGQRLCETLGGSSDIAFCHCDVTIEDDVKRAVDFTVDKFGTLDIMVNNAGVSGPPCPDIRDFELSAFDRVFDINVRGVFIGMKHAARIMIPAKKGSIISISSVASTMGGLGPHAYTGSKHAVLGLTKNVAAELGKHGIRVNCVSPYAVATSLALAHLPEAERTEDTWDDFRRFVADNANLQGVELTMEDVANAVVFLASDEARYVSGMNLMVDGGFTSTNHALQVFRP
notes: borneol-type dehydrogenase SoBDH2 from Salvia officinalis, GenBank MT525099; synthetic gene codon-optimized for E. coli; theoretical molecular mass with the His6 tag 32.2 kDa; Homotetramer with D2 symmetry in cryoEM; also called Salvia officinialis borneol dehydrogenase 2; source: E. coli BL21-RIL, purified (Ni-NTA, SEC); not shown: His6, N-terminal, kept
stoichiometry N [3]: 8 and 4
